Measurements reported in patent publication US20170189519A1.

B1: Fab fragment of CR6261 (Fab, V domains shown)
VH: EVQLVESGAEVKKPGSSVKVSCKASGGPFRSYAISWVRQAPGQGPEWMGGIIPIFGTTKYAPKFQGRVTITADDFAGTVYMELSSLRSEDTAMYYCAKHMGYQVRETMDVWGKGTTVTVSS
VL: QSVLTQPPSVSAAPGQKVTISCSGSSSNIGNDYVSWYQQLPGTAPKLLIYDNNKRPSGIPDRFSGSKSGTSATLGITGLQTGDEANYYCATWDRRPTAYVVFGGGTKLTVLG
B2: CR6261 (antibody, V domains shown)
VH: B1 VH
VL: B1 VL

Columns and labels:
Conditions in all cases: remark: other sources report otherwise
[1] = target: s127H1-t2-cl18long; assay: SEC-MALS of trimer with Fab fragments; value in brackets is the theoretical one
[2] = target: s127H1-t2-cl18long; assay: Kd app from steady state Octet (biolayer interferometry), antibody immobilized
[3] = target: UFV150134 (influenza A virus H1 A/California/07/2009)
[4] = target: UFV150124 (influenza A virus H1 A/Brisbane/59/2007)
[5] = target: UFV150125 (influenza A virus H1 A/Brisbane/59/2007)
[6] = target: UFV150135 (influenza A virus H1 A/California/07/2009)

Binder | Mw of trimer protein complex with CRF6261 [1] | Kd [2] | CR6261 binding AlphaLISA (counts) [3] | CR6261 binding AlphaLISA (counts) [4] | CR6261 binding AlphaLISA (counts) [5] | CR6261 binding AlphaLISA (counts) [6]
B1 | 216 kDa | – | – | – | – | –
B2 | – | 0.5 nM | 587000 counts | 572000 counts | 475000 counts | 625000 counts
